Here are results for two molecules from publication PMC2241821, “A focused antibody library for selecting scFvs expressed at high levels in the cytoplasm” (BMC Biotechnology, 2007).

In the assay the target is T1, αβ tubulin dimer (pig, UniProt P02550;P02554).
T1 construct: source: purified from pig brain
Nature of the assay: ELISA; tubulin coated on a Nunc Maxisorp 96-well plate; 5-20 μl of cytoplasmic extract of E. coli expressing the scFv; revealed with 9E10 and HRP anti-mouse IgG; also done in presence or absence of 10 mM DTT. The note with it: one partner purified. For orientation: In an ELISA, binding on a coated surface is turned into a signal by an enzyme label.

B1: anti-tubulin scFv E12C (scFv, V domains shown)
VH: EVQLVESGGSLVKPGGSLRLSCAASGFTFSNYSMNWVRQAPGKGLEWISSISGSSRYIYYADFVKGRFTISRDNATNSLYLQMNSLRAEDTAVYYCVRSGGNTFDYWGRGTLVTVSS
VL: QSVLTQPASVSGSPGQSITISCAGTSSDVGGYNYVSWYQQHPGKAPKLMIYEDSKRPSGVSNRFSGSKSGNTASLTISGLQAEDEADYYCQQYYRKPWTFGGGTKLAVL
notes: source: E. coli BL21(DE3)pLysS cytoplasm (pET23NN); in cell extract, and purified (Ni-NTA); not shown: c-myc, C-terminal, kept
B1: the binding result was “binds”.

B2: anti-tubulin scFv F1C (scFv, V domains shown)
VH: EVQLVESGGSLVKPGGSLRLSCAASGFTFSNYSMNWVRQAPGKGLEWISSISGSSRYIYYADFVKGRFTISRDNATNSLYLQMNSLRAEDTAVYYCVRGNADGGENWELFDKWGRGTLVTVSS
VL: QSVLTQPASVSGSPGQSITISCAGTSSDVGGYNYVSWYQQHPGKAPKLMIYEDSKRPSGVSNRFSGSKSGNTASLTISGLQAEDEADYYCQLYQNTLWTFGGGTKLAVL
notes: as for B1
As for B2, the binding result is “binds”.
